Assay results reported in the supplement of paper PMC9170038.

System: MS2 coat protein
Test: apparent KD of MS2 coat protein; designed switch direction (-1 OFF switch, 1 ON switch): 1; higher = weaker reporter binding
Summary of the method: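 The reported apparent KD is a per-design median over clusters, from curve fits of normalised cluster fluorescence. Protein titrations used SNAP-549-labelled MS2 coat protein, doubled from 0.7 or 1.5 nM to 3 µM, in Tris-HCl pH 7.5 buffer with KCl, MgCl2, BSA, DTT, tRNA and Tween-20, with no input, 200 uM small-molecule ligand, or an oligonucleotide input. The RNA switches were transcribed on Illumina chips by stalled E. coli RNA polymerase.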

[1] = input ligand: microRNA oligo, concentration not stated
[2] = Eterna round: R95, input ligand: FMN 200 uM
[3] = Eterna round: R95, input ligand: microRNA oligo, concentration not stated
[4] = Eterna round: R95, input ligand: none

Sequence	apparent KD of MS2 coat protein (input ligand: FMN 200 uM) [nM]	apparent KD of MS2 coat protein [1] [nM]	apparent KD of MS2 coat protein (input ligand: none) [nM]	apparent KD of MS2 coat protein [2] [nM]	apparent KD of MS2 coat protein [3] [nM]	apparent KD of MS2 coat protein [4] [nM]
CUGCUCGGGUGAGGAUAUGCCGCCGUUUCGGCUGCAGAAGGUGCUACGUUACAUGAGGAUCACCCAUGUCUCUGUUGUUUCGUC [salish99_SSNG1_r04_967] (Eterna round: R96, puzzle: Same State NG 1)	74	41	57.3			
CUGCUCGUGUGAGGAUAUGCCGCCGUUUCGGCUGCAGAAGGUGCUACGUUACAUGAGGAUCACCCAUGUCUCUGUUGUUUCGUA [salish99_SSNG1_r04_948] (Eterna round: R96, puzzle: Same State NG 1)	40.1	28.8	35.9			
GAAAAACAUGAGGAUCACCCAUGUAGAAAUAUGGGAGGAUAUACAAAGUCGAAAGACAAAGUAGAAGGCCUAAAAG [Mat - Same State 1 - Eli mod - D2] (Eterna round: R96, puzzle: Same State 1)		96.8				
GAAAGAGGAAGCGAGGAUAUCGUGAAGAGUACAUGAGGAUCACCCAUGUUGUAGGUAAAGGUAGGCGAGAAGGCGCAGGAGAAGA [JR_SS2_Sub0102] (puzzle: Same State 2)				23.9	23.7	33.2
GAAUAGUUGAGAGGAUAUGUAUUAUUGUAGGAUACAGAAGGUUUUAACAUGAGGAUCACCCAUGUAGGACUAUAUAUGUGAAUA [Parity 98 - Jieux - Same State NG 1] (Eterna round: R96, puzzle: Same State NG 1)		11.7				
GAGAGAGGGUGAGGAUAUUGAGUAAUAAUGAUACAAGAAGGCACAGACAUGAGGAUCACCCAUGUGGGAAUAAUCCAGAGAGAG [Parity 6 - Jieux - Same State NG 1] (Eterna round: R96, puzzle: Same State NG 1)	262	153	289			
GAGCCAGUCCGAGGAUAUUCAACAUGAGGAUCACCCAUGUAGGCUCAGAAAAGAAAAGAGCCUUGGGAGAAGGCGGACUGGCUC [Xeonanisa<<7] (Eterna round: R96, puzzle: Same State NG 2)	9.61	9.01	14.1			
GAGCCAGUCCGAGGAUAUUCAUAAUUAAAUACAUGAGGAUCACCCAUGUAGGCAAGAGAGCCUUGGGAGAAGGCGGACUGGCUC [Xeonanisa>>2] (Eterna round: R96, puzzle: Same State NG 2)	12.8	25	42.9			
GAGCCAGUCCGAGGAUAUUCGUAGGAACACAUGAGGAUCACCCAUGUGGGCUCAGAAGAGCCCUGGGAGAAGGCGGGCUGGCUC [SS-NG2-LRO18] (Eterna round: R96, puzzle: Same State NG 2)	7.53	8.45	17.5			
GAGGAACAGGCCAACAUGAGGAUCACCCAUGUCCUCGCAUUUCAGGAUAUCUGGAAGAAGAAGAAAGAGAAGGGAAGGUGAAGC [AK SSNG3-V2-34.1] (Eterna round: R96, puzzle: Same State NG 3)	114	101	112			
GAGGAUGAACUACAGGAUAUAUAGCAGAUGACAUGAGGAUCACCCAUGUAAGAGAAAGGAGGGAGAUAGAAGGGUAUGGGAGGUG [JR_SS2_Sub037] (puzzle: Same State 2)				34.4	28.6	27.1
GAGGGACAUGAGGAUCACCCAUGUGGAAAAUUUAAAGGAUAUUAGUGUGGGAAAGUAGGGUAAGAAGGUUGAUUGG [JR_SS1_Sub085] (puzzle: Same State 1)				50.2	54.2	91.3
GAGUAGGACUUACAGGAUAUAUGGAGGUUGACAUGAGGAUCACCCAUGUCUGAGUUGAGAGGAGGAUAGAAGGGUAUGGGAGGCG [JR_SS2_Sub030] (puzzle: Same State 2)				23.4	16.5	22.4
GAGUAGUUAAAAGGAUAUUGAUUAUUGUAGGAUCAAGAAGGUUUUAACAUGAGGAUCACCCAUGUAGGACUAUAAAUGUGAAAA [Parity 93 - Jieux - Same State NG 1] (Eterna round: R96, puzzle: Same State NG 1)		12.5				
GCACAUGAGGAUCACCCAUGUGCGCUUGAUUGUCCAAGCGCACAGGAUAUACCUCCAAAUGGGAGGUAGAAGGGUGAAAAGAAA [Ravema] (Eterna round: R96, puzzle: Same State NG 3)	2310	393	347			
GCCAACUAAUGAGGAUAUGGCACCUUAUUGGUGCCAGAAGGCAUGUCAAAAGACAUGAGGAUCACCCAUGUAUUAUAGUUGGCA [Mat - Same State NG 1 - JL mod - D73] (Eterna round: R96, puzzle: Same State NG 1)	25.5	62.5	304			
GCCAUCGCAUGAGGAUAUGGCACCGUUUCGGUGCCAGAAGGCAUGUCGUAAGACAUGAGGAUCACCCAUGUAGUUAAGAUGGCA [JL Fiskers NG1ss - 33 mod 8] (Eterna round: R96, puzzle: Same State NG 1)	219	101	407			
GCCCAUAGUAUAUGGGUACAAGCUUUUUAACAUGAGGAUCACCCAUGUACUCGUCUUAUGUGCAGUCCGUAGACUGC [JL-shm-2.17 Brourd mod] (puzzle: Sensor for hsa-mir-208a)				86.4	14	82.3
GCCGACUAAUGAGGAUAUGGCACCUUAUUGGUGCCAGAAGGCAUGUCAAUUGACAUGAGGAUCACCCAUGUAUUAUAGUUGGCG [salish99_SSNG1_r04_602] (Eterna round: R96, puzzle: Same State NG 1)	96.5	177	449			
GCCGCGUUUCGCGCCUACAUGAGGAUCACCCAUGUAUGUGGGCAGGAUAUCGUUUGCUUUGCAAACGAGAAGGGCUGUUGUGGC [salish99_SSNG3_R04_010] (Eterna round: R96, puzzle: Same State NG 3)	19.7	21.2	30			
GCGAAAGCAGGAGGAUAUGCAGAGGAUCACCCUGUAGAAGGCCACAGAGGAGGAUAUGCAGAGGAUCACCCUGUAGAAGGCCAC [pwkr ssNG DX.17] (Eterna round: R96, puzzle: Same State NG 1)	176	262	303			
GCGAAGAGGUAAGGAUAUUCAUGGCAUAGACAUGAGGAUCACCCAUGUAGGAGACGAAUUAGAAGGAAGAAGGUACCAGGACGC [AK SSNG2-V2-18] (Eterna round: R96, puzzle: Same State NG 2)	137	111	187			
GCGAGCGUACUUGCAGACAUGAGGAUCACCCAUGUAACUGGACAGGAUAUGGUACCGUUUCGGUACCAGAAGGGUUUACAUGUU [JL SSNG3 3.51] (Eterna round: R96, puzzle: Same State NG 3)	20.2	27.2	47.7			
GCGAGGAUAUGGAGAGGAUCACCCUCUAGAAGGCGCGAAGGCGAGGAUAUGGAGAGGAUCACCCUCUAGAAGGCGCACUUCUCU [pwkr ssNG3 DX 2xF5 +2xFMN.5] (Eterna round: R96, puzzle: Same State NG 3)	222	162	235			
GCGAUAUGAUGUUACAUGAGGAUCACCCAUGUAGCGAUAGCUAAGGAUAUUUGAAAGGGAGGAGAAGAGAAGGUAGGAUCACGC [AK SSNG3-V2-22.2] (Eterna round: R96, puzzle: Same State NG 3)	24.6	18.6	20.3			
GCGGAACGGGCCGACAUGAGGAUCACCCAUGUGGCCUCAUGUCAGGAUAUCGGGAAGAAGAAAACCGAGAAGGGACGGUGACGC [AK SSNG3-V2-32] (Eterna round: R96, puzzle: Same State NG 3)	8.18	29.8	22.2			
GCGGAGAGGUAAGGAUAUCCAUGGAAGACACAUGAGGAUCACCCAUGUGGGAGGGAAACCAGGAGGGAGAAGGUACCGGGACGC [AK SSNG2-V2-21] (Eterna round: R96, puzzle: Same State NG 2)	11.5	10.4	13.2			
GCUACCAUUGAUGCCUACAUGAGGAUCACCCAUGUAUGUAGGCAGGAUAUCGAUUGCAAAGCGAUCGAGAAGGGCUUAGGUAGC [Mat - Same State NG 3 - JL Mod - D93] (Eterna round: R96, puzzle: Same State NG 3)	56	103	149			
GCUAGAAAUAAAGCCAACAUGAGGAUCACCCAUGUAUGUUGGUAGGAUAUCGUAUGCAAAGCAUACGAGAAGGGCUAAACUAGC [Mat - Same State NG 3 - JL Mod - D18] (Eterna round: R96, puzzle: Same State NG 3)	91.6	77.5	93.7			
GCUAGAAUUAAAGCCAACAUGAGGAUCACCCAUGUAUGUUGGUAGGAUAUCGUUUGCUUUGCAAACGAGAAGGGCCAAACUAGC [JL SSNG3 1.07] (Eterna round: R96, puzzle: Same State NG 3)	64.7	142	111			
